T1: A462S (Homo sapiens, UniProt P78325)
T1 construct: expressed on HEK293 cells; also called human ADAM8 point mutant A462S
T1 sequence (ADAM8, looked up): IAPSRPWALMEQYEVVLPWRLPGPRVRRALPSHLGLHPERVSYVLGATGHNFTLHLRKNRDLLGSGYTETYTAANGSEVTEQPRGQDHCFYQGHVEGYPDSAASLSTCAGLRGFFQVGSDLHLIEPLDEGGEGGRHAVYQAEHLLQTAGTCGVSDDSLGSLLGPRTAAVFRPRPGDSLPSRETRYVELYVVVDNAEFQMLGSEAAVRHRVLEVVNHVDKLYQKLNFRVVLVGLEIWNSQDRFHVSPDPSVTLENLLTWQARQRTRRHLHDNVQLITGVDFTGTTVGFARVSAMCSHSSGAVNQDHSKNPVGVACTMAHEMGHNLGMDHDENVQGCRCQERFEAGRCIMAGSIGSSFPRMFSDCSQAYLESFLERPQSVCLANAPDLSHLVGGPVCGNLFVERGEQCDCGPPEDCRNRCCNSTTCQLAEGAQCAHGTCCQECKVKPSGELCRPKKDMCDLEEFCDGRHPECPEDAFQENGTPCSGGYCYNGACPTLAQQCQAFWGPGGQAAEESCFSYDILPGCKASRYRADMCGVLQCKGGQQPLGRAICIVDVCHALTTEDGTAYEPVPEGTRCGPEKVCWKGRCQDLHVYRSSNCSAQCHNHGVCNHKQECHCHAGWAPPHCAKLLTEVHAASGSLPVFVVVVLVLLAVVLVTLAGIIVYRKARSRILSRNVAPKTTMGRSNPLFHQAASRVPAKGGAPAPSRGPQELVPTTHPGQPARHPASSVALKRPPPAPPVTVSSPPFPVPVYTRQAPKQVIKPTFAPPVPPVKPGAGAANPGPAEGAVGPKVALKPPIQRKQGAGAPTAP

T2: R431A (Homo sapiens, UniProt P78325)
T2 construct: expressed on HEK293 cells; also called human ADAM8 point mutant R431A
T2 sequence (ADAM8, looked up): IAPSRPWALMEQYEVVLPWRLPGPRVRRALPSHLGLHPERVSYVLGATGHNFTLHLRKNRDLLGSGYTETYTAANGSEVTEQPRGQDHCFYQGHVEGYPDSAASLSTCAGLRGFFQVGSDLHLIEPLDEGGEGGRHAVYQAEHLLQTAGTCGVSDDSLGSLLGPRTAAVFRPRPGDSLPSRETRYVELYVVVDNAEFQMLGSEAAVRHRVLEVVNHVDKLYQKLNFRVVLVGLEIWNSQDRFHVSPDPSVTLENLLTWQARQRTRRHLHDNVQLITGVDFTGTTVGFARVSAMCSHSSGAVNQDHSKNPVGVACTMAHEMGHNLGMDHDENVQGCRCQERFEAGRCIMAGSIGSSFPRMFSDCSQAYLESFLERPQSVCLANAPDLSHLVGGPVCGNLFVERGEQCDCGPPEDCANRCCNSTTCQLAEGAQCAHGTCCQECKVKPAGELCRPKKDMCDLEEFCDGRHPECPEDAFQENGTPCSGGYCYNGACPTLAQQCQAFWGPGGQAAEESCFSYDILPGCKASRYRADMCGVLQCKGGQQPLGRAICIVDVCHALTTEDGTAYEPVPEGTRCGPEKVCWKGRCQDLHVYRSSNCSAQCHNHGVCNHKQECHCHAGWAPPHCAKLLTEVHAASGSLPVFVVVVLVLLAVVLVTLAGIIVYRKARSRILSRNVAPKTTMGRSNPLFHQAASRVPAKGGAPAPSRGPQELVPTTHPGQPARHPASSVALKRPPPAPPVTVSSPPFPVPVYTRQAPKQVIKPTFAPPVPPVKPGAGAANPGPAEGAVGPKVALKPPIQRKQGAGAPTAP


Tests used:
A462S = molecular target: T1, A462S; assay: high-throughput flow cytometry, HEK293 cells with mutant ADAM8, high stringency; range in parentheses
Protocol: (§1) A variety of experimental parameters were optimized for high-throughput flow cytometry including blocking buffer, and primary and secondary antibody concentrations, to identify the optimal conditions for screening. Through these studies ADP2 and ADP13 were determined to be high affinity binding antibodies.
(§2) Thus, for these studies antigen-binding fragments (Fabs) of ADP2 and ADP13, which bind with lower affinity than the full antibody, were generated. In addition, higher binding stringency conditions were tested, such as increased pH, salinity, and temperature, and/or increased washing, to weaken binding sufficiently to allow identification of critical binding residues in flow cytometry. The final experimental flow cytometry conditions were: primary antibody incubation with ADP2 Fab (0.50 μg/ml), ADP13 Fab (5.00 μg/ml) and Control Ab (0.16 μg/ml) for 60 minutes in flow cytometry buffer containing 10% goat serum in PBS (Ca²⁺ and Mg²⁺ free). […] Samples were washed three times after primary antibody incubation and twice after secondary antibody incubation with PBS (Ca²⁺ and Mg′ free). Next, HEK293 cells expressing WT or mutated ADAM8 proteins or EV DNA were incubated with ADP2 or ADP13 Fabs or Control Ab at their optimal concentrations. Fab binding was detected using Alexa Fluor 488-conjugated secondary antibodies and mean cellular fluorescence determined using the Intellicyt iQue flow cytometry platform. […] This counter-screen strategy facilitates the exclusion of mutants that are locally misfolded or that have an expression defect. Binding of each test Fab to each mutant clone in the alanine scanning library was determined, in duplicate, by high-throughput flow cytometry.

R431A = molecular target: T2, R431A; assay: as above
Protocol: as §1, §2

Binding Reactivity (% WT) (A462S) | Binding Reactivity (% WT) (R431A) | Binder
50.1 |  | ADP2 Fab (Fab, V domains shown) VH: EVKLVESGGGLVQPGGSLSLSCAASGFSFPDYYMSWVRQPPGKALEWLGFIRDSANGYTTEYIASVKGRFTFSRDNSQSILYLQMNALRAEDSATYYCARYSRYYGMDYWGQGTSVTVSS VL: SIVMTQTPKILLVSAGDRVTITCKASQTVNYDVAWYQQKPGQSPKPVIYFASNRYTGVPDRFTGSGFGTDFTFTISTVQAEDLAVYFCQQDYSAPWTFGGGTKLEIK
 | 79.6 | ADP13 Fab (Fab, V domains shown) VH: EVQLQQSGPEMVKPGTSVKISCKASGYTFTDYYINWVKQSHGKSLEWIGDISPNIGGATYNPKFKGKAILTVDKSARTAYMELRSLTSEDSAVYCCTRGGSSYPYFYAMDYWGQGTSVTVSS VL: DIVMSQSPSSLAVSVGEKVTMSCKSSQSLLYSSNQKKYLAWYQQKPGQSPKLLIYWASTRESGVPDRFTGSGSGTDFTLTISSVKAEDLAVYYCQQFYSYPYTFGGGTKLEINR
